For 52 sequences, protein stability index results are on record in the supplement of paper PMC10567573.

A short description of the data set: protein stability index of a GFP-peptide fusion (GPS, HEK-293T) (PSI 1-6); higher = more stable. The conditions noted are these: c terminus: a fixed tail appended.

± gives the standard deviation.
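Also: 24-mer peptide tiles fused after GFP, lentivirally expressed, FACS-sorted into six equal bins by GFP/DsRed ratio, decoded by Illumina sequencing, PSI is the read-weighted mean bin number.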

Turning to SETLEQKPHFESSTVKTETISFGS [EPB41L3], the protein stability index reads like this: (treatment: DMSO) 5.19 ± 0.073; (treatment: MLN4924 1 uM, 8 h) 4.95 ± 0.34.

With LERQNQEYQVLLDVKARLEGEIAT [KRT36], the protein stability index by setting is: (treatment: DMSO) 3.93 ± 0.077; (treatment: MLN4924 1 uM, 8 h) 4.02 ± 0.2.

For MNTEAEQQLLHHARNGNAEEVRQL [OSBPL1A], the protein stability index was found to be 5.24 ± 0.28 (treatment: DMSO) and 5.47 ± 0.12 (treatment: MLN4924 1 uM, 8 h).

The sequence RHDVIVSIVTAAKKDILLVNDHLL [PDS5B] gave a protein stability index (treatment: DMSO) of 2.51 ± 0.31 and a protein stability index (treatment: MLN4924 1 uM, 8 h) of 2.29 ± 0.5.

For the sequence MAREHAFNIGLPDNIVNCNEFLCT [ZNF277], the protein stability index by setting is: (treatment: DMSO) 2.94 ± 0.21; (treatment: MLN4924 1 uM, 8 h) 2.92 ± 0.57.

VRSLRGEEPVPRERDRDPCGGSGG [LURAP1L] had a protein stability index (treatment: DMSO) of 5.34 ± 0.24 and a protein stability index (treatment: MLN4924 1 uM, 8 h) of 5.35 ± 0.095.

In the case of PNSTFPIDKSMTVVLTFITPMLNP [OR4A15], the protein stability index runs as follows: (treatment: DMSO) 2.95 ± 0.38; (treatment: MLN4924 1 uM, 8 h) 2.97 ± 0.38.

GNGALSNISDLPFLAENSAFPKMA [LCOR]: the protein stability index is 3.72 ± 0.22 (treatment: DMSO) and 3.49 ± 0.17 (treatment: MLN4924 1 uM, 8 h).

QEEMAEDPLTYKSRLMVVVKMDSS [RHOBTB2]: the protein stability index was determined as 3.45 ± 0.27 (treatment: DMSO) and 3.49 ± 0.24 (treatment: MLN4924 1 uM, 8 h).

Consider IHHLVLTASDGGDPLRSGTVLVSV [PCDHGA10], for which the protein stability index runs as follows: (treatment: DMSO) 2.97 ± 0.45; (treatment: MLN4924 1 uM, 8 h) 2.79 ± 0.34.

Regarding KAVKYQSKARRKKIMIIICCVILG [STX1A], the protein stability index is 2.18 ± 0.8 (treatment: DMSO) and 2.25 ± 0.43 (treatment: MLN4924 1 uM, 8 h).

Turning to PPKWQIGEQEFEALMRMLDNLGYR [ADD1], the protein stability index was 2.35 ± 0.26 (treatment: DMSO) and 2.58 ± 0.22 (treatment: MLN4924 1 uM, 8 h).

In the case of ADSGRYRASPTRTAPLPMPEGPEP [ELOA2], the protein stability index (treatment: DMSO) is 4.84 ± 0.32 and the protein stability index (treatment: MLN4924 1 uM, 8 h) amounted to 4.96 ± 0.28.

For YVASHKIEKEEQEKKRKEEEERRR [ACBD3], the protein stability index came out at 3.2 ± 1.1 (treatment: DMSO) and 4.37 ± 0.73 (treatment: MLN4924 1 uM, 8 h).

In the case of TYKHINEVYYAKKKRRAQQAPPQD [DYRK1B], the protein stability index was found to be 3.7 ± 0.085 (treatment: DMSO) and 3.66 ± 0.21 (treatment: MLN4924 1 uM, 8 h).

As for YEYTSCTTFSTTSGYMEGYYTFHF [FBXO3], the protein stability index by setting is: (treatment: DMSO) 3.37 ± 0.42; (treatment: MLN4924 1 uM, 8 h) 3.2 ± 0.31.

Take RRSNSPDKFKRPTPPPSPNTQTPV [CCDC6]: the protein stability index by setting is: (treatment: DMSO) 5.27 ± 0.19; (treatment: MLN4924 1 uM, 8 h) 5.25 ± 0.16.

For the sequence EDKCPGNYTNPLKVQTVIILGKVI [TMEM192], the protein stability index came to 2.47 ± 1 (treatment: DMSO) and 2.29 ± 0.37 (treatment: MLN4924 1 uM, 8 h).

Turning to ESGVHGALLALDENFDHNTLALIL [PPFIA4], the protein stability index was found to be 2.75 ± 0.17 (treatment: DMSO) and 2.96 ± 0.27 (treatment: MLN4924 1 uM, 8 h).

As to STSFMSSSSSSSSWLTRRAIRPEN [EMD], the protein stability index turned out to be 3.39 ± 0.35 (treatment: DMSO) and 3.38 ± 0.16 (treatment: MLN4924 1 uM, 8 h).

Take RTNDGKITYPPGVKEISDKISKEE [PDS5B]: the protein stability index reads like this: (treatment: DMSO) 5.02 ± 0.19; (treatment: MLN4924 1 uM, 8 h) 5.197 ± 0.006.

NLSSRWKNWWVRGILTLAMIAFFF [CDS2]: the protein stability index is 4.15 ± 0.14 (treatment: DMSO) and 4.04 ± 0.15 (treatment: MLN4924 1 uM, 8 h).

Regarding YDMSDTNSDPEVVNVDNLLAAAVV [C18orf25], the protein stability index is 4.06 ± 0.35 (treatment: DMSO) and 4.02 ± 0.26 (treatment: MLN4924 1 uM, 8 h).

Take GSSDASGSYSSTMNGHQNGLDSPP [ESRRG]: the protein stability index is, setting by setting: (treatment: DMSO) 4.93 ± 0.13; (treatment: MLN4924 1 uM, 8 h) 4.99 ± 0.27.

For the sequence FTFLGKKCVTMSSAVVQLYAADRN [WASL], the protein stability index (treatment: DMSO) came to 2.33 ± 0.34 and the protein stability index (treatment: MLN4924 1 uM, 8 h) turned out to be 2.43 ± 0.36.

Sequence ELQREWLGNREALIQFLEQVHQGI [CPN1] yielded a protein stability index (treatment: DMSO) of 2.76 ± 0.12 and a protein stability index (treatment: MLN4924 1 uM, 8 h) of 2.97 ± 0.3.

On to HRLGSPYGHCTAGGEGVEVELLHN [SCNN1D], for which the protein stability index reads like this: (treatment: DMSO) 3.9 ± 0.34; (treatment: MLN4924 1 uM, 8 h) 3.82 ± 0.37.

As for APSFSSYLYFLFCPTLIYRETYPR [SOAT2], the protein stability index runs as follows: (treatment: DMSO) 2.99 ± 0.17; (treatment: MLN4924 1 uM, 8 h) 2.7 ± 0.44.

LPNTLLRKDKDVARLQDFQELELV [ANKRD40]: the protein stability index reads like this: (treatment: DMSO) 3.76 ± 0.11; (treatment: MLN4924 1 uM, 8 h) 3.66 ± 0.29.

As to AHIHLQQLTCFSITCSSTMSYSCC [KRT34], the protein stability index is 3.37 ± 0.64 (treatment: DMSO) and 2.95 ± 0.26 (treatment: MLN4924 1 uM, 8 h).

As to IKEIDEHAPGVPKILVGNRLHLAF [RAB40B], the protein stability index is, setting by setting: (treatment: DMSO) 1.93 ± 0.33; (treatment: MLN4924 1 uM, 8 h) 2.19 ± 0.36.

On to QDMSQVSGKESPPVSDTPDEGDEP [IKZF1], for which the protein stability index is, setting by setting: (treatment: DMSO) 5.38 ± 0.41; (treatment: MLN4924 1 uM, 8 h) 5.62 ± 0.32.

Consider GSGTIDFEEFLVMMVRQMKEDAKG [TNNC2], for which the protein stability index came out at 3.25 ± 0.88 (treatment: DMSO) and 3.88 ± 0.8 (treatment: MLN4924 1 uM, 8 h).

Turning to ATPIVPVVPPTPPVVKKKGVKRKA [BRD3], the protein stability index was 5.33 ± 0.26 (treatment: DMSO) and 5.27 ± 0.12 (treatment: MLN4924 1 uM, 8 h).

FLIEGPLINTIRVVCASYEDYGHW [PLEKHN1] returned a protein stability index (treatment: DMSO) of 3.56 ± 0.49 and a protein stability index (treatment: MLN4924 1 uM, 8 h) of 2.58 ± 0.94.

Take RTLSLIVCTFTYLLVGAAVFDALE [KCNK9]: the protein stability index runs as follows: (treatment: DMSO) 2.82 ± 0.7; (treatment: MLN4924 1 uM, 8 h) 3.19 ± 0.81.

Regarding CEVMQEIVDQVLEEDFDSEQLSVL [INTS3], the protein stability index was found to be 5.06 ± 0.14 (treatment: DMSO) and 5.16 ± 0.12 (treatment: MLN4924 1 uM, 8 h).

Take SIPQSSLEPLKAIIQYRLPMKKNN [ACSBG2]: the protein stability index (treatment: DMSO) turned out to be 3.48 ± 0.14 and the protein stability index (treatment: MLN4924 1 uM, 8 h) was 3.49 ± 0.3.

Consider QMLRKTVKDEAHQAQKDPKKDRPL [PPP2R5C], for which the protein stability index is, setting by setting: (treatment: DMSO) 4.89 ± 0.1; (treatment: MLN4924 1 uM, 8 h) 4.97 ± 0.24.

Regarding EGCTGALHILARDVHNRIVIRGLN [CTNNB1], the protein stability index (treatment: DMSO) came to 2.65 ± 0.23 and the protein stability index (treatment: MLN4924 1 uM, 8 h) stood at 2.71 ± 0.17.

Turning to PTVDLNQVLNETRSQYEALVETNR [KRT34], the protein stability index by setting is: (treatment: DMSO) 3.37 ± 0.55; (treatment: MLN4924 1 uM, 8 h) 3.79 ± 0.48.

The sequence CPGLRLPGSLAGRRAGPAIWAQGW [AUH] gave a protein stability index (treatment: DMSO) of 2.83 ± 0.15 and a protein stability index (treatment: MLN4924 1 uM, 8 h) of 1.82 ± 0.35.

As for RENGNNSSDKVRGIETLESVPIIG [PHTF1], the protein stability index is, setting by setting: (treatment: DMSO) 4.8 ± 0.33; (treatment: MLN4924 1 uM, 8 h) 4.53 ± 0.36.

Take DPGQDLVPKQAIQVQEADEAGWGG [DLX1]: the protein stability index (treatment: DMSO) worked out at 5.18 ± 0.28 and the protein stability index (treatment: MLN4924 1 uM, 8 h) came to 5.22 ± 0.4.

Sequence SKIPHILKEMYDADLLEEEVIISW [EIF5] yielded a protein stability index (treatment: DMSO) of 2.19 ± 0.38 and a protein stability index (treatment: MLN4924 1 uM, 8 h) of 2.4 ± 0.24.

DPTGPAGLGRPTPGLSQGPGKETL [EHMT1]: the protein stability index (treatment: DMSO) worked out at 5.17 ± 0.15 and the protein stability index (treatment: MLN4924 1 uM, 8 h) was 5.09 ± 0.13.

In turn, SFAQATQLGDLHTCLMMDMKACQE [INTS3] had a protein stability index (treatment: DMSO) of 3.21 ± 0.19 and a protein stability index (treatment: MLN4924 1 uM, 8 h) of 3.3 ± 0.43.

Turning to TLEGHQRAIMAHMTVEEIYKDRQK [FLOT1], the protein stability index came out at 4.52 ± 0.13 (treatment: DMSO) and 4.7 ± 0.19 (treatment: MLN4924 1 uM, 8 h).

With RTYKQRFLFAKLFSHITSARKARK [PHTF1], the protein stability index is 2.17 ± 0.14 (treatment: DMSO) and 2.55 ± 0.58 (treatment: MLN4924 1 uM, 8 h).

Take ARTFGNEARFIRRSCTPNAEVRHE [KMT2E]: the protein stability index stood at 3.2 ± 0.51 (treatment: DMSO) and 3.22 ± 0.26 (treatment: MLN4924 1 uM, 8 h).

Take SASEMKQLIDNILEESDIDRDGTI [CIB1]: the protein stability index (treatment: DMSO) is 5.31 ± 0.27 and the protein stability index (treatment: MLN4924 1 uM, 8 h) was 5.45 ± 0.2.

Take EEVLCDSCIGNKQKAVKSCLVCQA [TRIM29]: the protein stability index runs as follows: (treatment: DMSO) 5.52 ± 0.17; (treatment: MLN4924 1 uM, 8 h) 5.22 ± 0.26.
